# ± gives the uncertainty stated by the source.
# B1: Homeobox protein SIX3, residues 212 to 262; numbered along this chain, O95343 (parent)
# chain: CFKERTRSLLREWYLQDPYPNPSKKRELAQATGLTPTQVGNWFKNRRQRDR
# Variants of: B1
# Assay: abundance fitness (aPCA) (normalised: wild type 0, dead -1); higher = more abundant; growth selection in yeast, the domain comes from the species named
# Conditions: Homo sapiens
row,Variant,abundance fitness
1,CFKVRTRSLLREWYLQDPYPNPSKKRELAQATGLTPTQVGNWFKNRRQRDR [E4V],-0.651 ± 0.071
2,CFKCRTRSLLREWYLQDPYPNPSKKRELAQATGLTPTQVGNWFKNRRQRDR [E4C],-0.685 ± 0.21
3,CFKRRTRSLLREWYLQDPYPNPSKKRELAQATGLTPTQVGNWFKNRRQRDR [E4R],-0.708 ± 0.06
4,CFKARTRSLLREWYLQDPYPNPSKKRELAQATGLTPTQVGNWFKNRRQRDR [E4A],-0.931 ± 0.2
5,CFKMRTRSLLREWYLQDPYPNPSKKRELAQATGLTPTQVGNWFKNRRQRDR [E4M],-0.178 ± 0.25
6,CFKLRTRSLLREWYLQDPYPNPSKKRELAQATGLTPTQVGNWFKNRRQRDR [E4L],-0.605 ± 0.17
7,CFKYRTRSLLREWYLQDPYPNPSKKRELAQATGLTPTQVGNWFKNRRQRDR [E4Y],-0.441 ± 0.28
8,CFKGRTRSLLREWYLQDPYPNPSKKRELAQATGLTPTQVGNWFKNRRQRDR [E4G],-0.532 ± 0.13
9,CFKWRTRSLLREWYLQDPYPNPSKKRELAQATGLTPTQVGNWFKNRRQRDR [E4W],-0.684 ± 0.16
10,CFPERTRSLLREWYLQDPYPNPSKKRELAQATGLTPTQVGNWFKNRRQRDR [K3P],-0.39 ± 0.071
11,CFDERTRSLLREWYLQDPYPNPSKKRELAQATGLTPTQVGNWFKNRRQRDR [K3D],-0.037 ± 0.068
12,CFEERTRSLLREWYLQDPYPNPSKKRELAQATGLTPTQVGNWFKNRRQRDR [K3E],0.074 ± 0.062
13,CFTERTRSLLREWYLQDPYPNPSKKRELAQATGLTPTQVGNWFKNRRQRDR [K3T],-0.134 ± 0.11
14,CFVERTRSLLREWYLQDPYPNPSKKRELAQATGLTPTQVGNWFKNRRQRDR [K3V],-0.655 ± 0.12
15,CFMERTRSLLREWYLQDPYPNPSKKRELAQATGLTPTQVGNWFKNRRQRDR [K3M],-0.624 ± 0.2
16,CFRERTRSLLREWYLQDPYPNPSKKRELAQATGLTPTQVGNWFKNRRQRDR [K3R],-0.275 ± 0.047
17,CFCERTRSLLREWYLQDPYPNPSKKRELAQATGLTPTQVGNWFKNRRQRDR [K3C],0.158 ± 0.12
18,CFAERTRSLLREWYLQDPYPNPSKKRELAQATGLTPTQVGNWFKNRRQRDR [K3A],-0.3 ± 0.037
19,CFYERTRSLLREWYLQDPYPNPSKKRELAQATGLTPTQVGNWFKNRRQRDR [K3Y],-0.262 ± 0.095
20,CFNERTRSLLREWYLQDPYPNPSKKRELAQATGLTPTQVGNWFKNRRQRDR [K3N],0.165 ± 0.069
21,CFQERTRSLLREWYLQDPYPNPSKKRELAQATGLTPTQVGNWFKNRRQRDR [K3Q],-0.216 ± 0.2
22,CFHERTRSLLREWYLQDPYPNPSKKRELAQATGLTPTQVGNWFKNRRQRDR [K3H],-0.72 ± 0.4
23,CFSERTRSLLREWYLQDPYPNPSKKRELAQATGLTPTQVGNWFKNRRQRDR [K3S],-0.106 ± 0.1
24,CFIERTRSLLREWYLQDPYPNPSKKRELAQATGLTPTQVGNWFKNRRQRDR [K3I],-0.362 ± 0.18
25,CFKEATRSLLREWYLQDPYPNPSKKRELAQATGLTPTQVGNWFKNRRQRDR [R5A],-0.075 ± 0.09

row,Variant,abundance fitness
1,CFKESTRSLLREWYLQDPYPNPSKKRELAQATGLTPTQVGNWFKNRRQRDR [R5S],0.187 ± 0.089
2,CFKEQTRSLLREWYLQDPYPNPSKKRELAQATGLTPTQVGNWFKNRRQRDR [R5Q],-0.317 ± 0.093
3,CFKETTRSLLREWYLQDPYPNPSKKRELAQATGLTPTQVGNWFKNRRQRDR [R5T],-0.148 ± 0.091
4,CFKEWTRSLLREWYLQDPYPNPSKKRELAQATGLTPTQVGNWFKNRRQRDR [R5W],-0.369 ± 0.12
5,CFKENTRSLLREWYLQDPYPNPSKKRELAQATGLTPTQVGNWFKNRRQRDR [R5N],-0.225 ± 0.15
6,CFKEITRSLLREWYLQDPYPNPSKKRELAQATGLTPTQVGNWFKNRRQRDR [R5I],-0.418 ± 0.23
7,CFKEMTRSLLREWYLQDPYPNPSKKRELAQATGLTPTQVGNWFKNRRQRDR [R5M],-0.16 ± 0.1
8,CFKEYTRSLLREWYLQDPYPNPSKKRELAQATGLTPTQVGNWFKNRRQRDR [R5Y],-0.455 ± 0.24
9,CFKEVTRSLLREWYLQDPYPNPSKKRELAQATGLTPTQVGNWFKNRRQRDR [R5V],0.003 ± 0.059
10,CFKEDTRSLLREWYLQDPYPNPSKKRELAQATGLTPTQVGNWFKNRRQRDR [R5D],-0.18 ± 0.16
11,CFKEETRSLLREWYLQDPYPNPSKKRELAQATGLTPTQVGNWFKNRRQRDR [R5E],-0.098 ± 0.095
12,CFKELTRSLLREWYLQDPYPNPSKKRELAQATGLTPTQVGNWFKNRRQRDR [R5L],-0.283 ± 0.1
13,CFKEKTRSLLREWYLQDPYPNPSKKRELAQATGLTPTQVGNWFKNRRQRDR [R5K],-0.394 ± 0.31
14,CFKEPTRSLLREWYLQDPYPNPSKKRELAQATGLTPTQVGNWFKNRRQRDR [R5P],-0.329 ± 0.13
15,CFKEGTRSLLREWYLQDPYPNPSKKRELAQATGLTPTQVGNWFKNRRQRDR [R5G],-0.102 ± 0.083
16,CFKEHTRSLLREWYLQDPYPNPSKKRELAQATGLTPTQVGNWFKNRRQRDR [R5H],-0.522 ± 0.21
17,CFKECTRSLLREWYLQDPYPNPSKKRELAQATGLTPTQVGNWFKNRRQRDR [R5C],-0.359 ± 0.39
18,VFKERTRSLLREWYLQDPYPNPSKKRELAQATGLTPTQVGNWFKNRRQRDR [C1V],-0.402 ± 0.3
19,IFKERTRSLLREWYLQDPYPNPSKKRELAQATGLTPTQVGNWFKNRRQRDR [C1I],0.874 ± 0.28
20,GFKERTRSLLREWYLQDPYPNPSKKRELAQATGLTPTQVGNWFKNRRQRDR [C1G],-0.359 ± 0.14
21,EFKERTRSLLREWYLQDPYPNPSKKRELAQATGLTPTQVGNWFKNRRQRDR [C1E],-0.342 ± 0.49
22,FFKERTRSLLREWYLQDPYPNPSKKRELAQATGLTPTQVGNWFKNRRQRDR [C1F],0.499 ± 0.16
23,SFKERTRSLLREWYLQDPYPNPSKKRELAQATGLTPTQVGNWFKNRRQRDR [C1S],-0.121 ± 0.18
24,WFKERTRSLLREWYLQDPYPNPSKKRELAQATGLTPTQVGNWFKNRRQRDR [C1W],-0.251 ± 0.16
